We go through four molecules from patent publication US20180094062A1 (Hoffmann-La Roche, published 2018).

One assay concerns the target T1, TtSlyD-Wildtype.
T1 construct: scaffold without insert; N-terminal methionine can be present or not; also called T.T.SlyD-wt; wild type Thermus thermophilus SlyD protein
T1 chain: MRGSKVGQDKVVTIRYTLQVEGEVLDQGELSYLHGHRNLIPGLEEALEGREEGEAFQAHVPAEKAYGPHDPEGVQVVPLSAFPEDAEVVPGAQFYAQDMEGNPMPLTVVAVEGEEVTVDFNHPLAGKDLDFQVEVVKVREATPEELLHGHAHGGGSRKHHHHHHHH
As to the kind of experiment: SPR, antibody captured, 25 C. In general terms: In SPR one partner is held on a chip, and binding of the other changes the refractive index at the surface.

Assay [1] has as its target T2, human Heregulin fragment (HRG) (human).
T2 construct: a 44 kDa homodimeric protein, expressed in FreeStyle 293-F cells; also called Heregulin beta (HRG)
T2 chain: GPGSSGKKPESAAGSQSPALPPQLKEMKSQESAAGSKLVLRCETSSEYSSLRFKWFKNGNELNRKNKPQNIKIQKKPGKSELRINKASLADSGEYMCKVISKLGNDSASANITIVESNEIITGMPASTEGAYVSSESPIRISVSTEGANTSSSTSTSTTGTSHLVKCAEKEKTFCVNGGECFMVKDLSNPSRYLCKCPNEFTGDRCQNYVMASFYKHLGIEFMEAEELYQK
As to the kind of experiment: SPR Biacore T200, antibody captured, 25 C. On the procedure:
(§1) A Biacore T200 instrument (GE Healthcare) was mounted with a CM5 series sensor. The sensor was normalized in HBS-ET buffer (10 mM HEPES pH 7.4, 150 mM NaCl, 3 mM EDTA, 0.05% w/v Tween 20) according to the manufacturer's instructions. The sample buffer was the system buffer supplemented with 1 mg/ml CMD (Carboxymethyldextran, Sigma #86524). The system operated at 25° C. 6500 RU RAM-Fcγ (relative units of Fcγ-fragment RamlgG, GE Healthcare) were immobilized according to the manufacturer's instructions using amine coupling EDC/NHS chemistry on all four flow cells. The sensor was deactivated using 1M ethanolamine. […] Concentration dependent kinetics were measured. […] All analytes were injected for 5 min association time and 10 min dissociation time at 100 μl/min flow rate. The sensor capture system was regenerated by a 3 min injection at 10 μl/min of 10 mM glycine pH 1.7. Where possible kinetic data was evaluated using the Biacore T200 evaluation software.

Assay [2] addresses T3, HER4 ECD-HRG complex (Heregulin-complexed Her-4 ECD) (human, UniProt Q15303 26-651).
T3 construct: Her-4 ECD incubated with a 5-fold molar excess of Heregulin
T3 sequence 1: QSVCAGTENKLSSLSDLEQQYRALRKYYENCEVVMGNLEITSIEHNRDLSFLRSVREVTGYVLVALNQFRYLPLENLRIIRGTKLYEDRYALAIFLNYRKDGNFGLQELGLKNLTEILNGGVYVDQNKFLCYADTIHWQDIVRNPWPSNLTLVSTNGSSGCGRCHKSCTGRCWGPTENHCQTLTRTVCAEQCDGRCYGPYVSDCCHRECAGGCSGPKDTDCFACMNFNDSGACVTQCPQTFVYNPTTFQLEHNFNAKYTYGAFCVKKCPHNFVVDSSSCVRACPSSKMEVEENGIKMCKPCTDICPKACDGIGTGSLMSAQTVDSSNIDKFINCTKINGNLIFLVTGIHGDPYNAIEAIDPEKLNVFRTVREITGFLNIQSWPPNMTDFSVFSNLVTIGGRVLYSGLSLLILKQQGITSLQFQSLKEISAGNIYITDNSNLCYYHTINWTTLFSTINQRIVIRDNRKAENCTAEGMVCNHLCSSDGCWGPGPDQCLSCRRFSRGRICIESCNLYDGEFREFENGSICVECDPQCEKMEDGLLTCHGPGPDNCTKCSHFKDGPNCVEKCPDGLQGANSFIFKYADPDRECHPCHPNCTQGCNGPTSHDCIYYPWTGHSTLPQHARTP
T3 sequence 2: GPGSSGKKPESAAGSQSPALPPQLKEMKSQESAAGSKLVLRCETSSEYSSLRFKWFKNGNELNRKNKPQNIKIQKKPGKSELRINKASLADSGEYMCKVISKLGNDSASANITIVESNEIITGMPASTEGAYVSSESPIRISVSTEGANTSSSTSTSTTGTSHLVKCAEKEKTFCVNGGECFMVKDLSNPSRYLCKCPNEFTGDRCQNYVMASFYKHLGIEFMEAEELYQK
The assay is described as follows: SPR Biacore T200, antibody captured, 25 C. On the procedure: as §1

Assay [3] has as its target HER4, full length, on transfected HEK293 cells (human, UniProt Q15303 26-1308). The assay is described as follows: IHC on HEK293 cells transiently transfected with full length HER4; NC = untransfected cells. On the procedure: All selected clones were tested for reactivity and specificity in IHC. […] After an additional fixation in formalin overnight the Agarose blocks were embedded in paraffin. Untransfected HEK293 cells were used as negative controls and treated accordingly to the transfected cells. After paraffin embedding 3 μm thin sections were prepared using a microtome. The sections were mounted on glass microscopy slides and dried for 2 h. All further steps of the immunohistochemical staining procedure were carried out using a Ventana Benchmark XT. The slides were dewaxed and antigen retrieval was performed by applying heat for 1 hour. For antigen retrieval the Ventana buffer CC1 was used. The antibodies were used at a concentration of 1 μg/ml. For the detection of bound antibody the Ventana UltraView detection kit was used.

Another assay addresses T4, TgSlyDΔIF.
T4 construct: negative control scaffold without insert (Thermococcus gammatolerans SlyD); also called TgSlyDAIF
T4 chain: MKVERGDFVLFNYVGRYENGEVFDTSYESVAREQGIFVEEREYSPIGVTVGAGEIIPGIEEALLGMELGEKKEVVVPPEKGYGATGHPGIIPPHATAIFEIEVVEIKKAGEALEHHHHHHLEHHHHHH
As to the kind of experiment: ELISA, antigen coated, hybridoma supernatant. The procedure: (§2) For the ELISA screening an antigen down format was used. […] Hybridoma Supernatant was added to the plates and incubated for 1 h at room temperature. Bound antibody was detected with a HRP-labeled F(ab′)₂ goat anti-mouse Fcγ (Dianova) and ABTS (Roche) was used as a HRP-substrate.
(§3) As negative controls the scaffold proteins TtSlyDcas and TgSlyDΔIF were used.
Background: An ELISA detects its analyte on a solid surface through an enzyme-linked reagent.

A further assay concerns the target T5, TgSlyDcys-Her3.
T5 chain: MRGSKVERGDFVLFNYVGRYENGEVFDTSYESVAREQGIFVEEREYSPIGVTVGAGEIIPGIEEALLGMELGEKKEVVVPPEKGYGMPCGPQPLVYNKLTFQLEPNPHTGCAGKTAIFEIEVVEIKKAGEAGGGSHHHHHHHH
As to the kind of experiment: ELISA, antigen coated, hybridoma supernatant. On the procedure: as §2, §3

Chain of HER4, full length, on transfected HEK293 cells (Q15303 26-1308): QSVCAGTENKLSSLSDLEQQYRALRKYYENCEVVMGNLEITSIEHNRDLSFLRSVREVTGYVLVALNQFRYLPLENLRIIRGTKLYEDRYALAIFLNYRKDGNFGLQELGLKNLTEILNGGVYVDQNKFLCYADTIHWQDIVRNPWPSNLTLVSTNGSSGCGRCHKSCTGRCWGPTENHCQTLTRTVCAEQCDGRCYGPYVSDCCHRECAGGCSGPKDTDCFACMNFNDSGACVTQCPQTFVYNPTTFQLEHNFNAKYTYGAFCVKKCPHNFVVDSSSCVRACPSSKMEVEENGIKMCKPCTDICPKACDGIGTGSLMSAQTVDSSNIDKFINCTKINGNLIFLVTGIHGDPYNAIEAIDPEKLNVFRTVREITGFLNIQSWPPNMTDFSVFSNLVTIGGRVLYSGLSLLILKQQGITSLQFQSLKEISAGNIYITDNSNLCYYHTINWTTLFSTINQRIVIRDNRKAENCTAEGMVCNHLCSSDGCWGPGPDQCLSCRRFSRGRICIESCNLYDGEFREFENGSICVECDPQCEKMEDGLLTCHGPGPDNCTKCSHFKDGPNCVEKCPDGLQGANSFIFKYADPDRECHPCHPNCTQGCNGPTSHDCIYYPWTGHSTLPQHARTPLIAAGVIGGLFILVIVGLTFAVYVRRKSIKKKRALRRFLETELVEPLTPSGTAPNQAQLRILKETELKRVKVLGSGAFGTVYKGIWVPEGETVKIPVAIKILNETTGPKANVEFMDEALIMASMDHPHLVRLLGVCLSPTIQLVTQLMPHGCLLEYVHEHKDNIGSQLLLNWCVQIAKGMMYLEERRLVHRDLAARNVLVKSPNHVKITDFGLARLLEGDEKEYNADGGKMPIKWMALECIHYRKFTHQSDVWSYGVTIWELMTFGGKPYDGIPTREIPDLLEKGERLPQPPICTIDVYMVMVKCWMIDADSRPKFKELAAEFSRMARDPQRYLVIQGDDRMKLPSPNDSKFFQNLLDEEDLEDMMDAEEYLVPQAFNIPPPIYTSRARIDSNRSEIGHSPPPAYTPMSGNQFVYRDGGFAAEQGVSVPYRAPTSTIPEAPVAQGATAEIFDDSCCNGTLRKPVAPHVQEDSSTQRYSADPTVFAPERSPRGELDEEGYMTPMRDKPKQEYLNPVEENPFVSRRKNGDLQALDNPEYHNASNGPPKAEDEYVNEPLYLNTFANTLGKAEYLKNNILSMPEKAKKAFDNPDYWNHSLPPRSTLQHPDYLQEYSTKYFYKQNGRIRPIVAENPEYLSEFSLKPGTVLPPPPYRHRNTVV

B1: anti-HER3 antibody M-46-01 (antibody, V domains shown)
VH: QIQLQQSGPQLVRPGASVKISCKASGYSFTSYWMHWVKQRPGRGLEWIGMIDPSDGVTRLNQKFKDKATLTVDNSSSTAYMQLSSPTSEDSAVHYCARVDVLYWYFDVWGAGTTVTVSS
VL: DIVLTQSPASLAVSLGQRATISCRASKSISISGYSYMHWYQQKAGQPPKLLIYLTSNLESGVPARFSGSGSGTDFTLNIHPVEEEDAATYYCHHSRELPFTFGSGTKLEIK
notes: mouse hybridoma clone
As for B1, the binding result is “no binding” with TtSlyD-Wildtype, “no binding (tested: 450 nM)” in assay [1], “no binding (tested: 90 nM)” in assay [2] and “no binding” in assay [3].

B2: anti-HER3 antibody M-17-02 (antibody, V domains shown)
VH: EVQLQQSGTVLARPGASVKMSCKASGYSFTSYWIHWVKQRPGQGLEWIGAIYPGNSDTTYNQKFKGKAKLTAVTSASTAYMELSSLTNEDSAVYYCARTGVWTSYYFDYWGQGTTLTVSS
VL: DIQMTQSPASLSASVGETVTITCRASENIYSNLAWYQQKQGKSPQLLVYAATNLADGVPSRFSGSGSGTQFSLRINSLQPEDFGSYYCQHFYGTPFTFGTGTKLEIK
notes: mouse hybridoma clone
Turning to B2, the figures for the “OD 405 nm” value with TgSlyDΔIF and in the assay with TgSlyDcys-Her3 were 0.026 OD and 1.53 OD, respectively. The binding result in assay [3] was “no binding”.

B3: anti-HER3 antibody M-43-01 (antibody, V domains shown)
VH: EVQLQQSGTVLARPGASVKMSCKASDYTFSNYWVHWVKQRPGQGLEWIGAIYPGNGDSTYYQKFKGKATLTAVTSTSTAYMDLSSLTNGDSAVYFCTRSGVGYNYYFDYWGQGTTLTVSS
VL: DIQMTQSPASLSASVGETVTITCRASENIYSNLAWYQQKQGKSPQLLVYIATNLADGVPSRFSGSGSGTQFSLKINSLQPEDLGSYYCQHFYGTPFTFGTGTKLEIE
notes: mouse hybridoma clone
Take B3: the “OD 405 nm” value in the assay with TgSlyDΔIF came to 0.038 OD; with TgSlyDcys-Her3, 3.15 OD. The binding result with TtSlyD-Wildtype is given as “no binding”; in assay [1] it was “no binding (tested: 450 nM)”; in assay [2], “no binding (tested: 90 nM)”; in assay [3] it was “no binding”.

B4: anti-HER3 antibody M-08-11 (antibody, V domains shown)
VH: QAYLQQSGAELMRPGASVRMSCQASGYTFTSYTIHWLKQTPRQGLEWIGAIYPRNGDFSYNQKFKDKASLTVDTSSSTAYMHLSSLTSEDSAVYFCARTINYGDWFAYWGQGTLVTVSA
VL: DIQMIQSPASLFVSEGETVIITCRASENIYSNLAWYHQKKGKSPQVLVYAAIKLADGVPLRFSGSGSGTQFSLKINSLQSEDFGSYYCQHFWGPPYTFGSGTNLEIK
notes: mouse monoclonal antibody from hybridoma, tested as hybridoma supernatant or as antibody; also called M-011
In the case of B4, the results for the “OD 405 nm” value in the assay with TgSlyDΔIF and with TgSlyDcys-Her3 were 0.035 OD and 3.26 OD, respectively. Further, in assay [3], the binding result is on record as “no binding”.
